Measured values from patent publication US20230348572A1 (ROSALIND FRANKLIN INSTITUTE, published 2023).
Like-named read-outs stand apart in the source and are kept apart here.

How the values were obtained:
[1] = target: T1, SARS-CoV-2 spike glycoprotein ectodomain (prefusion-stabilized, trimeric) (SARS-CoV-2, UniProt P0DTC2 14-1208)
[2] = target: T1, SARS-CoV-2 spike glycoprotein …; experiment: ITC, Spike in the cell, H11-H4 in the syringe
[3] = target: T1, SARS-CoV-2 spike glycoprotein …; experiment: ITC, nanobody titrated into trimeric Spike, 1:1 nanobody:monomer
[4] = target: T1, SARS-CoV-2 spike glycoprotein …; remark: listed apart in the source

Binder | ΔH [1] | ΔS [1] | ΔH [2] | ΔS [2] | Kd [3] | ΔH [4] | ΔS [4]
NbRBD_H11-H4 (VHH, also called nanobody H11-H4) VHH: QVQLVESGGGLMQAGGSLRLSCAVSGRTFSTAAMGWFRQAPGKEREFVAAIRWSGGSAYYADSVKGRFTISRDKAKNTVYLQMNSLKYEDTAVYYCAQTHYVSYLLSDYATWPYDYWGQGTQVTVSS | -74 kJmol-1 | -107 Jmol-1K-1 | -73 kJmol-1 | -103 Jmol-1K-1 | 44 nM | – | –
NbRBD_H11-D4 (VHH, also called nanobody H11-D4) VHH: QVQLVESGGGLMQAGGSLRLSCAVSGRTFSTAAMGWFRQAPGKEREFVAAIRWSGGSAYYADSVKGRFTISRDKAKNTVYLQMNSLKYEDTAVYYCARTENVRSLLSDYATWPYDYWGQGTQVTVSS | – | – | – | – | 79 nM | -81.2 kJmol-1 | -136 Jmol-1K-1
